Laboratory results taken from patent publication US20200181261A1 (Bayer, published 2020).
Changes are numbered by the printed parent chain.

T1: human CEACAM6, extracellular (mature form), R&D Systems 3934-CM (human, UniProt P40199 35-320)
T1 construct: used biotinylated in some assays; also called TPP-1436; Recombinant human CEACAM6
T1 sequence: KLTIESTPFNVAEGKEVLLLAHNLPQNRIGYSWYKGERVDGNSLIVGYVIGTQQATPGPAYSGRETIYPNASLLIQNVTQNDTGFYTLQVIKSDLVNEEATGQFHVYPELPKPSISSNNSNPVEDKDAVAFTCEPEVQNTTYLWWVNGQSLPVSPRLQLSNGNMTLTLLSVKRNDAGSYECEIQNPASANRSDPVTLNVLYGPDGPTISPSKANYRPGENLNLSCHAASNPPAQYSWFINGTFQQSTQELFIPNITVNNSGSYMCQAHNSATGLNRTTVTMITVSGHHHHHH

T2: Macaca fascicularis CEACAM6, extracellular (mature form), obtained by Factor Xa cleavage of TPP-2443 (Macaca fascicularis)
T2 construct: used biotinylated in some assays; also called APP-319; Cynomolgus CEACAM6
T2 chain: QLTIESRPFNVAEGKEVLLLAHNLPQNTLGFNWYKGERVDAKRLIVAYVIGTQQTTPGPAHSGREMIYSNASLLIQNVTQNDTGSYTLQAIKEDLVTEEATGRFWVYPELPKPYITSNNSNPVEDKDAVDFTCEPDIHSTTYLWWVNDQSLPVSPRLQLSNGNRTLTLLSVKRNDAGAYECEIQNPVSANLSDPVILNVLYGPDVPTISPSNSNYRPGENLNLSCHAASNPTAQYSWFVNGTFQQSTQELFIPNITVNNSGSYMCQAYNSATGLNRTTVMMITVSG

T3: human CEACAM5, extracellular (mature form), R&D Systems 4128-CM (human, UniProt P06731 35-685)
T3 construct: used biotinylated in some assays; also called TPP-1438; hC5
T3 sequence: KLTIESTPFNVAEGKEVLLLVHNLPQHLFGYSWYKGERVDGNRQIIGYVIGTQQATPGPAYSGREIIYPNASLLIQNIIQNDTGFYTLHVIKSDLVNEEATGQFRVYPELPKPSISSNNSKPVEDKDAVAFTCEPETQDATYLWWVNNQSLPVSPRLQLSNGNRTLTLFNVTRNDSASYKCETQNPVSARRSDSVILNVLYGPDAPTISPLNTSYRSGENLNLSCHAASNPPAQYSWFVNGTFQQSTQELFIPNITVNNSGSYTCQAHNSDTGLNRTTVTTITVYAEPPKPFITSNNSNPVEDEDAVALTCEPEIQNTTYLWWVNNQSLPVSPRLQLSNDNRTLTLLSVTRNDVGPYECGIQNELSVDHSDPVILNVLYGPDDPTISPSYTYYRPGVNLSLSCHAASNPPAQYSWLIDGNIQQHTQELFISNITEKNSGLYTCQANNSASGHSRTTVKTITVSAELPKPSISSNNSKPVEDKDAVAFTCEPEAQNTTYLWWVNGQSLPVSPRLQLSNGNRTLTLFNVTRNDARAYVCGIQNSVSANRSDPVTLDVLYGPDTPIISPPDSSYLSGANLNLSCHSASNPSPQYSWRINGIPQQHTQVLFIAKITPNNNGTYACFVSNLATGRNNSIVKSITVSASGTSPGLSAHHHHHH

T4: human CEACAM3, extracellular (mature form), Sino Biological Inc. 11933-H08H (human, UniProt P40198 35-155)
T4 construct: used biotinylated in some assays; also called TPP-2755
T4 sequence: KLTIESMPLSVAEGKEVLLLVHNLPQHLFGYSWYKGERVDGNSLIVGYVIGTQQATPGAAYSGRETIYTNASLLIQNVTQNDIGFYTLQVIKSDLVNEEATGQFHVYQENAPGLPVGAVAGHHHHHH

T5: Human CEACAM6-Domain 1-His (expressed in E. coli), wild-type (human)
T5 construct: entry includes the His tag; also called hDOM1
T5 chain: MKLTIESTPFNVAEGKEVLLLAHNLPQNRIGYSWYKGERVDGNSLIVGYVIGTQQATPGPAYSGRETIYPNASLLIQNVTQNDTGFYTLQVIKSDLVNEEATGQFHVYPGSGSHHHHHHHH

T6: Macaca fascicularis CEACAM6-Domain 1-His (expressed in E. coli) (Macaca fascicularis)
T6 construct: entry includes the His tag; also called TPP-2453; Recombinant single domain 1 of Macaca fascicularis CEACAM6
T6 chain: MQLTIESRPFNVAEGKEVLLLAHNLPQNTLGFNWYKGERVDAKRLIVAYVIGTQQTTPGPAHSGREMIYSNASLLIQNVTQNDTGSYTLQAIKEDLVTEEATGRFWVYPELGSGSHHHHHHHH

B1: TPP-3705 (antibody, human IgG2, kappa, V domains shown)
VH: EVQLVESGGGLVQPGGSLRLSCAASGFTFSLYQMHWVRQAPGKGLEWVSWISFSGGNTGYADSVKGRFTISRDNSKNTLYLQMNSLRAEDTAVYYCARATGYSSPWYLDPWGQGTLVTVSS
VL: DIQMTQSPSSLSASVGDRVTITCQASHEIDNYLNWYQQKPGKAPKLLIYDAYWLKTGVPSRFSGSGSGTDFTLTISSLQPEDIATYYCQGYDDLSVTFGGGTKVDIKR
notes: also called 090E-M007-A09-Mat1-hIgG2-hIgG2Kappa
B2: TPP-3707 (antibody, human IgG2, kappa, V domains shown)
VH: B1 VH
VL: B1 VL with L54S
notes: also called 090E-M007-A09-Mat2-hIgG2-hIgG2Kappa
B3: TPP-3821 (antibody, human IgG2, kappa, V domains shown)
VH: QVTLRESGPALVKPTQTLTLTCTFSGFSLSTYGIGVGWIRQPPGKALEWLAHIWWNDNKYYSTSLKTRLTISKDTSKNQVVLTMTNMDPVDTATYYCARISLPYFDYWGQGTLVTVSS
VL: DIQLTQSPSFLSASVGDRVTITCKASQNVGTAVAWYQQKPGKAPKLLIYSASNRYTGVPSRFSGSGSGTEFTLTISSLQPEDFATYYCQQYNNYPLTFGGGTKVEIKR
notes: humanized from TPP-3187, human IgG2; also called 3187HU2-hIgG2Kappa
B4: TPP-3310 (antibody, human IgG2, kappa)
heavy: QVTLRESGPALVKPTQTLTLTCTFSGFSLSTYGIGVGWIRQPPGKALEWLAHIWWNDNKYYSTSLKTRLTISKDTSKNQVVLTMTNMDPVDTATYYCARISLPYFDYWGQGTTLTVSSASTKGPSVFPLAPCSRSTSESTAALGCLVKDYFPEPVTVSWNSGALTSGVHTFPAVLQSSGLYSLSSVVTVPSSNFGTQTYTCNVDHKPSNTKVDKTVERKCCVECPPCPAPPVAGPSVFLFPPKPKDTLMISRTPEVTCVVVDVSHEDPEVQFNWYVDGVEVHNAKTKPREEQFNSTFRVVSVLTVVHQDWLNGKEYKCKVSNKGLPAPIEKTISKTKGQPREPQVYTLPPSREEMTKNQVSLTCLVKGFYPSDIAVEWESNGQPENNYKTTPPMLDSDGSFFLYSKLTVDKSRWQQGNVFSCSVMHEALHNHYTQKSLSLSPG
light: DIQLTQSPSFLSASVGDRVTITCKASQNVGTAVAWYQQKPGKAPKLLIYSASNRYTGVPSRFSGSGSGTEFTLTISSLQPEDFATYYCQQYSSYPLTFGGGTKVEIKRTVAAPSVFIFPPSDEQLKSGTASVVCLLNNFYPREAKVQWKVDNALQSGNSQESVTEQDSKDSTYSLSSTLTLSKADYEKHKVYACEVTHQGLSSPVTKSFNRGEC
notes: humanized from TPP-2971, human IgG2; also called TPP-2971HU1-hIgG2Kappa
B5: TPP-3820 (antibody, human IgG2, kappa, V domains shown)
VH: B3 VH with S30T, A46G
VL: B3 VL
notes: humanized from TPP-3187, human IgG2; also called 3187HU1-hIgG2Kappa
B6: TPP-2971 (antibody, mouse IgG1, V domains shown)
VH: QVTLKESGPGILQPSQTLSLTCSFSGFSLSTYGIGVGWIRQPSGKDLEWLAHIWWNDNKYYNTALKSRLTISKDTSNNQVFLKIASVDTADTATYYCARISLPYFDYWGQGTTLTVSS
VL: DIVMTQSQKFMSTSVGDRVSITCKASQNVGTAVAWYQQKPGQSPKLLIYSASNRYTGVPDRFTGSGSGTDFTLTISNMQSEDLADYFCQQYSSYPLTFGAGTKLELK
notes: murine hybridoma antibody, mouse IgG1; also called 792.15H12C9
B7: TPP-3187 (antibody, mouse IgG1, V domains shown)
VH: B6 VH with S30T, D46G
VL: B6 VL with S92N, S93N
notes: murine hybridoma antibody, mouse IgG1; also called 792.15C4F4
B8: TPP-3323 (antibody, human IgG2, kappa, V domains shown)
VH: B6 VH with S30T, D46G
VL: DIVMTQSQKFMSTSVGDRVSITCKASQNVGTAVAWYQQKPGQSPKLLIYSASNRYTGVPDRFTGSGSGTDFTLTISNMQSEDLADYFCQQYNNYPLTFGAGTKLELKR
notes: human IgG2 chimera; also called TPP-3187X1-hIgG2; hIgG2 chimera of TPP-3187
B9: TPP-3308 (antibody, human IgG2, kappa, V domains shown)
VH: B6 VH
VL: B8 VL with N92S, N93S
notes: human IgG2 chimera; also called TPP-2971X1-hIgG2Kappa; hIgG2 chimera of TPP-2971

target: T1, human CEACAM6, extracellular (mature …); test: SPR, antibody captured, antigen as analyte
Protocol: (§1) Surface plasmon resonance (SPR) experiments for quantitative binding analyses were performed either using a Biacore T100, Biacore T200 or a Biacore 4000 instrument (GE Healthcare Biacore, Inc.) equipped with Series S Sensor Chips CM5 (GE Healthcare Biacore, Inc.). Binding assays were carried out at 25° C. with assay buffer HBS-EP+(10 mM HEPES pH 7.4, 150 mM NaCl, 3 mM EDTA, 0.05% Surfactant P20). Antibodies were captured with an anti-hIgG capture antibody covalently immobilized to the chip surface via amine coupling chemistry. Reagents for amine coupling (1-ethyl-3-(3-dimethylaminopropyl) carbodiimide hydrochloride (EDC), N-hydroxysuccinimide (NHS), ethanolamine-HCl pH 8.5) were used from the Amine Coupling Kit (GE Healthcare, product code BR-1000-50). Anti-hIgG, anti-mIgG capture antibodies and immobilization buffer (10 mM sodium acetate pH 5.0) were used from the Human Antibody Capture Kit (GE Healthcare, BR-1008-39) and the Mouse Antibody Capture Kit (GE Healthcare, BR-1008-38), respectively. The sensor chip surface was activated with a freshly prepared solution of 0.2 M EDC and 0.05 M NHS passed over the chip surface for 420 s at a flow rate of 10 μl/min, followed by an injection of anti-hIgG or anti-mIgG capture antibody (dissolved to 25 μg/ml in immobilization buffer) for 180 s at a flow rate of […]. Excess of activated groups were blocked with a 1 molar solution of ethanolamine injected at a flow rate of 10 μl/min for 420 s.
(§2) CEACAM antigens were used as analyte to determine KD values. Antibodies were captured for 20 s at a flow rate of 10 μl/min prior to each analyte injection.
(§3) Obtained sensorgrams were double-referenced, i.e. in-line reference cell correction followed by buffer sample subtraction.

Kd [nM] | Binder
28 | B1
28 | B2
24 | B3
13 | B4
27 | B5
61 | B6
68 | B7

Target: T2, Macaca fascicularis CEACAM6, …
Test: SPR, antibody captured, antigen as analyte
Protocol: as §1, §2, §3

Kd [nM] | Binder
32 | B1
32 | B2
49 | B3
31 | B4
54 | B5
25 | B6

target: T3, human CEACAM5, extracellular (mature …); test: SPR, antibody captured, antigen as analyte
Protocol: as §1, §2, §3

binding result | Binder
no binding (tested: 200 nM) | B1
no binding (tested: 200 nM) | B2
no binding (tested: 200 nM) | B3
no binding (tested: 200 nM) | B4
no binding (tested: 200 nM) | B5
no binding (tested: 200 nM) | B6
no binding (tested: 200 nM) | B7

target: T4, human CEACAM3, extracellular (mature …); test: SPR, antibody captured, antigen as analyte
Protocol: as §1, §2, §3

binding result | Binder
no binding (tested: 200 nM) | B3
no binding (tested: 200 nM) | B4
no binding (tested: 200 nM) | B5
no binding (tested: 200 nM) | B6
no binding (tested: 200 nM) | B7

Target: T5, Human CEACAM6-Domain 1-His (expressed …)
Test: SPR, antibody captured, antigen as analyte
Protocol: as §1, §2

Kd [nM] | Binder
6.7 | B1
6.4 | B2
4.5 | B3
3.7 | B4
5.1 | B5
11 | B6
9 | B8
12 | B7
9.5 | B9

Target: T6, Macaca fascicularis CEACAM6-Domain …
Test: SPR, antibody captured, antigen as analyte
Protocol: as §1, §2

Kd [nM] | Binder
2.7 | B1
2.4 | B2
4.7 | B3
3.4 | B4
5.2 | B5
5.3 | B6
6.9 | B8
6.9 | B7
5.4 | B9
